Laboratory results as given in publication PMC9931213, “Structural basis for ATG9A recruitment to the ULK1 complex in mitophagy initiation” (Science Advances, 2023).

B1: ATG13^HORMA (1–197):TwinStrep-Flag (TSF)–ATG101 complex (complex, human)
chain 1: METDLNSQDRKDLDKFIKFFALKTVQVIVQARLGEKICTRSSSSPTGSDWFNLAIKDIPEVTHEAKKALAGQLPAVGRSMCVEISLKTSEGDSMELEIWCLEMNEKCDKEIKVSYTVYNRLSLLLKSLLAITRVTPAYRLSRKQGHEYVILYRIYFGEVQLSGLGEGFQTVRVGTVGTPVGTITLSCAYRINLAFMS
chain 2: MNCRSEVLEVSVEGRQVEEAMLAVLHTVLLHRSTGKFHYKKEGTYSIGTVGTQDVDCDFIDFTYVRVSSEELDRALRKVVGEFKDALRNSGGDGLGQMSLEFYQKKKSRWPFSDECIPWEVWTVKVHVVALATEQERQICREKVGEKLCEKIINIVEVMNRHEYLPKMPTQSEVDNVFDTGLRDVQPYLYKISFQITDALGTSVTTTMRRLIKDTLAL
notes: ATG101, human; Heterodimer of two HORMA domains formed beforehand by co-expression; also called ATG13^HORMA:ATG101; source: HEK GnTi- cells, transfected, purified (Strep-Tactin resin, Superdex 200); not shown: TwinStrep-Flag (TSF), N-terminal, kept
B3: ATG13^HORMA (1–197), no tag (domain or fragment, human, UniProt O75143 1-197, looked up)
chain: METDLNSQDRKDLDKFIKFFALKTVQVIVQARLGEKICTRSSSSPTGSDWFNLAIKDIPEVTHEAKKALAGQLPAVGRSMCVEISLKTSEGDSMELEIWCLEMNEKCDKEIKVSYTVYNRLSLLLKSLLAITRVTPAYRLSRKQGHEYVILYRIYFGEVQLSGLGEGFQTVRVGTVGTPVGTITLSCAYRINLAFMS

Experiments:
Settings in all cases: both partners purified
[1] = target: T1, MBP-ATG9A (full-length autophagy-related protein 9A) (human, UniProt Q7Z3C6 1-839); assay: pull-down; recombinant MBP-ATG9A constructs (1.2 μM) on amylose resin with TSF-ATG101:ATG13 (1–197) complex (3 μM), 4°C overnight, ITC buffer (25 mM Hepes pH 7.5, 150 mM NaCl, 1 mM MgCl2, 1 mM TCEP); full-length MBP-ATG9A in DDM/CHS micelles (0.05% DDM/CHS); SDS-PAGE
T1 construct: In detergent (DDM/CHS) micelles; also called wild-type MBP-ATG9A; ATG9A wild type (WT); source: HEK GnTi- cells, transfected; not shown: MBP, N-terminal, kept
T1 sequence (looked up): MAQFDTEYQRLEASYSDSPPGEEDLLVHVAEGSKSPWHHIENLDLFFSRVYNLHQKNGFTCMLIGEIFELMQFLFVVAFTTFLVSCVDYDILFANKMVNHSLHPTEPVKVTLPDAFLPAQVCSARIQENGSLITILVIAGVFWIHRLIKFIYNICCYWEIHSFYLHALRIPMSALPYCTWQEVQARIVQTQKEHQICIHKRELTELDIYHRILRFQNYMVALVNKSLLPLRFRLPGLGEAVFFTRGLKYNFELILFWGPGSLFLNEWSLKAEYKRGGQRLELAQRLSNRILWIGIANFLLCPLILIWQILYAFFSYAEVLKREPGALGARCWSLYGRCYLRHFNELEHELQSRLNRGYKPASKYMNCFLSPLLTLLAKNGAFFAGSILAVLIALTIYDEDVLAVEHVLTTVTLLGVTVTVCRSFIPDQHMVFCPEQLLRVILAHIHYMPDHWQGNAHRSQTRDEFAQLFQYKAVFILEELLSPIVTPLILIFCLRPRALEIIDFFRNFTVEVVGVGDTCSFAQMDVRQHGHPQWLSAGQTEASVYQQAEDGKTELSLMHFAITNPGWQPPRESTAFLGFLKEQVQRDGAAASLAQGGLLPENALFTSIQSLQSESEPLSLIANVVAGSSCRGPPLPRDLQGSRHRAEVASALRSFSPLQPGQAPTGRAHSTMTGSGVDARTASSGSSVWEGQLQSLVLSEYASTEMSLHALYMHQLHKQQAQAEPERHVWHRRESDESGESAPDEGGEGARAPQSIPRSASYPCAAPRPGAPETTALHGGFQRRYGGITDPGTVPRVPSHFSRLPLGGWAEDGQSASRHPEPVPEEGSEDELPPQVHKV

[2] = target: B3; assay: crystal structure; ATG9 HDIR (828–839)–fused ATG101 (1–198):ATG13 (1–197) complex, 6 mg/ml; sitting drop, 288 K, 0.1 M Hepes pH 7.5, 0.2 M NaCl, 12% PEG8000; 2.4 Å
[3] = target: T2, ATG101 (1–198) as in the crystallised fusion (human, UniProt Q9BSB4 1-198); assay: as above
T2 construct: ATG101, human, residues 1-198; written on its own for the pairs that touch; also called ATG101 HORMA domain; source: HEK 293GnTi cells, as the C-terminal part of the fusion m32
T2 sequence (looked up): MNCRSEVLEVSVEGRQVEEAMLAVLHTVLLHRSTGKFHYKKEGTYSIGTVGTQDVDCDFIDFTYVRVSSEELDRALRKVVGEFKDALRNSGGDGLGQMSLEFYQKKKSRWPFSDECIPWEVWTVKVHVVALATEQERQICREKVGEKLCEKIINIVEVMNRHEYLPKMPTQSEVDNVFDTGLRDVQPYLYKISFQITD

[4] = target: B1; assay: pull-down; recombinant MBP-ATG9A constructs (1.2 μM) on amylose resin with TSF-ATG101:ATG13 (1–197) complex (3 μM), 4°C overnight, ITC buffer (25 mM Hepes pH 7.5, 150 mM NaCl, 1 mM MgCl2, 1 mM TCEP); full-length MBP-ATG9A in DDM/CHS micelles (0.05% DDM/CHS); SDS-PAGE

Binder: B1
- binding result [1]: binds

B2: ATG9A HDIR (828–839)–GSDEA–ATG101 (1–198) fusion construct (other, human)
chain: SEDELPPQVHKVGSDEAMNCRSEVLEVSVEGRQVEEAMLAVLHTVLLHRSTGKFHYKKEGTYSIGTVGTQDVDCDFIDFTYVRVSSEELDRALRKVVGEFKDALRNSGGDGLGQMSLEFYQKKKSRWPFSDECIPWEVWTVKVHVVALATEQERQICREKVGEKLCEKIINIVEVMNRHEYLPKMPTQSEVDNVFDTGLRDVQPYLYKISFQITD
notes: flexible linker of five residues; ATG101, human, residues 1-198; also called ATG9A HDIR-ATG101 fusion construct; not shown: GST, N-terminal, cleaved
- binding result [2]: binds

Binder: B3
- binding result [3]: binds

B4: MBP-ATG9A (692–839), monomeric (domain or fragment, human, UniProt Q7Z3C6 692-839, looked up)
chain: QLQSLVLSEYASTEMSLHALYMHQLHKQQAQAEPERHVWHRRESDESGESAPDEGGEGARAPQSIPRSASYPCAAPRPGAPETTALHGGFQRRYGGITDPGTVPRVPSHFSRLPLGGWAEDGQSASRHPEPVPEEGSEDELPPQVHKV
notes: source: HEK GnTi- cells, transfected, purified (amylose resin, Superose 6); not shown: MBP, N-terminal, kept
- binding result [4]: binds
